Laboratory results from article PMC11156922, “PDZ2-conjugated-PLGA nanoparticles are tiny heroes in the battle against SARS-CoV-2” (Scientific Reports, 2024).
No end group written: not given here. *: point of attachment. Biotin = O=C1N[C@H]2[C@H](CS[C@H]2CCCCC(=O)*)N1

T1: C-terminal portion of the SARS-CoV-2 Envelope protein, N-terminal biotinylated peptide (SARS-CoV-2)
T1 construct: also called SARS-CoV-2 E-protein; E-tetradecapeptide
T1 peptide: Biotin-VKNLNSSRVPDLLV


How the values were obtained:
[1] = biological target: Envelope protein (SARS-CoV-2) (UniProt P0DTC4); conditions: cited from earlier work
[2] = biological target: T1, C-terminal portion of the SARS-CoV-2 …; experiment: SPR; Biacore X100; biotinylated E peptide immobilised on streptavidin SA chip (target 1000 RU); PDZ2-f-NPs as analyte, 0.0625-30 uM in equivalents of protein; 25 C; HBS-EP (10 mM Hepes pH 7.4, 0.15 M NaCl, 3 mM EDTA, 0.05% P20); steady-state affinity model / Scatchard plot of maximum amplitudes; conditions: both partners purified

Sequence of ZO1 PDZ2 (Q07157 183-267): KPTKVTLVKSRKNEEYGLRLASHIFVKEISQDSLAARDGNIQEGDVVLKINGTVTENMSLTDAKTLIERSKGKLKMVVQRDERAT

Molecule	Kd [1] [nM]	Kd [2] [nM]
ZO1 PDZ2 (from UniProt Q07157)	2100	
PDZ2-ZO1 functionalized PLGA-PEG-Bis-sulfone nanoparticles (PDZ2 domain of human ZO-1, His-tagged, conjugated to the nanoparticle surface) (domain or fragment, His-tag chemically linked to the bis-sulfone (PEG-mono-sulfone) moiety of PLGA-PEG nanoparticles) KVTLVKSRKNEEYGLRLASHIFVKEISQDSLAARDGNIQEGDVVLKINGTVTENMSLTDAKTLIERSKGKLKMVVQRDE		970 ± 310
